From patent US20140274782A1, “AFFINITY REAGENTS AND METHODS FOR DETECTION, PURIFICATION, AND PROTEOMIC ANALYSIS OF METHYLATED PROTEINS” (The Board of Trustees of the Leland Stanford Junior …, priority 2013, published 2014)

Legend:
3×MBT domain of L3MBTL1 = assay: Triple SILAC pull-down, 3xMBT/3xMBTD355N ratio (cytoplasmic, nuclear and chromatin fractions of 293T cells); assay type: binding, human; conditions: SILAC ratio 3xMBT vs 3xMBTD355N pull-down, 293T cells, all values in log base 2; for 3xMBT/D355N UNC Heavy: experiment with UNC0638 in heavy SILAC media; for 3xMBT/D355N UNC Light: experiment with UNC0638 in light SILAC media;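 on all read-outs here: proteins quantified with MaxQuant, requiring at least two unique peptides and quantification in both label directions, normalized to the mean of proteins from a digested loading control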
G9a and GLP = target: T1, G9a and GLP (Homo sapiens, UniProt Q96KQ7+Q9H9B1); assay: Triple SILAC pull-down after UNC0638 treatment of 293T cells, DMSO/UNC0638 ratio of protein captured by 3×MBT; assay type: cell-based; set-up: endogenous in cells; host or cells: HEK 293T; conditions: all values in log base 2; for Relative to UNC0638 UNC Heavy / Relative to UNC0638 UNC Light: SILAC ratio DMSO relative to UNC0638, pull-down with 3xMBT; for Relative to UNC0638 UNC Heavy: UNC0638 in heavy SILAC media; for Relative to UNC0638 UNC Light: UNC0638 in light SILAC media; for Relative to UNC0638 Average: average of UNC Light and UNC Heavy experiments;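 on all read-outs here: mass spectrometry (Q-Exactive) SILAC quantitation, DMSO/UNC0638 ratio computed after subtracting 3×MBTD355N mutant pull-down background, only proteins with at least twofold 3×MBT over mutant signal considered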
T1 sequence (Q96KQ7 2-1210 limits assumed): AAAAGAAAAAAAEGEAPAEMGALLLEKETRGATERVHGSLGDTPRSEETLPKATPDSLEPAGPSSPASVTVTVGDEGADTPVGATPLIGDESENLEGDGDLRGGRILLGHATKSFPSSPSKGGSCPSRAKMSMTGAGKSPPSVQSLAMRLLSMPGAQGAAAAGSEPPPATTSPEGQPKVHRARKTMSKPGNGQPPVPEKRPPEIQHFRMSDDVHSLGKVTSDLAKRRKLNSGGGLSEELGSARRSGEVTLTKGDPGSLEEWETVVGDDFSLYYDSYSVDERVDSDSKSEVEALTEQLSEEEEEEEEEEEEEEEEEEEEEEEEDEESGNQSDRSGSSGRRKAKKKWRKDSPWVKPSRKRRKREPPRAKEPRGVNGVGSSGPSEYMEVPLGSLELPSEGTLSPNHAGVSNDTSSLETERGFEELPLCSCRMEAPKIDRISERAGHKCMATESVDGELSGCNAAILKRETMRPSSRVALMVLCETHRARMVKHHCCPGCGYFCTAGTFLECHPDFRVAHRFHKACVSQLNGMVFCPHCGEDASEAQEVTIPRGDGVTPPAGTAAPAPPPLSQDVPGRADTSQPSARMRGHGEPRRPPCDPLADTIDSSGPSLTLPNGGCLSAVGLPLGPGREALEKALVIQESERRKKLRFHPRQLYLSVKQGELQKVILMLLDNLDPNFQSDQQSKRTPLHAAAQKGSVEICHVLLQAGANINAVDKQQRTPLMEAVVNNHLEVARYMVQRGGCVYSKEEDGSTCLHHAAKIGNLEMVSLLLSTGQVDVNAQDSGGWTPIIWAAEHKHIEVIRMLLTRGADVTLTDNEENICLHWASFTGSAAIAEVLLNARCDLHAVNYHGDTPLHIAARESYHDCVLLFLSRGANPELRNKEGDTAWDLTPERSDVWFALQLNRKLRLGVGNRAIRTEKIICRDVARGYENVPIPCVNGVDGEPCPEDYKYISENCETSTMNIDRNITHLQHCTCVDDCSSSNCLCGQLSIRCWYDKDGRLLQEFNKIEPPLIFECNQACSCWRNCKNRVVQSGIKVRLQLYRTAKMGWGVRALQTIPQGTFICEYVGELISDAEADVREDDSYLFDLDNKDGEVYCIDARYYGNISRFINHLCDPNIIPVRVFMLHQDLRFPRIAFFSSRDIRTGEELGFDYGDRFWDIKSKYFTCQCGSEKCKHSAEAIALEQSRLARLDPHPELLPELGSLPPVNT
T1 sequence (Q9H9B1 2-1298 limits assumed): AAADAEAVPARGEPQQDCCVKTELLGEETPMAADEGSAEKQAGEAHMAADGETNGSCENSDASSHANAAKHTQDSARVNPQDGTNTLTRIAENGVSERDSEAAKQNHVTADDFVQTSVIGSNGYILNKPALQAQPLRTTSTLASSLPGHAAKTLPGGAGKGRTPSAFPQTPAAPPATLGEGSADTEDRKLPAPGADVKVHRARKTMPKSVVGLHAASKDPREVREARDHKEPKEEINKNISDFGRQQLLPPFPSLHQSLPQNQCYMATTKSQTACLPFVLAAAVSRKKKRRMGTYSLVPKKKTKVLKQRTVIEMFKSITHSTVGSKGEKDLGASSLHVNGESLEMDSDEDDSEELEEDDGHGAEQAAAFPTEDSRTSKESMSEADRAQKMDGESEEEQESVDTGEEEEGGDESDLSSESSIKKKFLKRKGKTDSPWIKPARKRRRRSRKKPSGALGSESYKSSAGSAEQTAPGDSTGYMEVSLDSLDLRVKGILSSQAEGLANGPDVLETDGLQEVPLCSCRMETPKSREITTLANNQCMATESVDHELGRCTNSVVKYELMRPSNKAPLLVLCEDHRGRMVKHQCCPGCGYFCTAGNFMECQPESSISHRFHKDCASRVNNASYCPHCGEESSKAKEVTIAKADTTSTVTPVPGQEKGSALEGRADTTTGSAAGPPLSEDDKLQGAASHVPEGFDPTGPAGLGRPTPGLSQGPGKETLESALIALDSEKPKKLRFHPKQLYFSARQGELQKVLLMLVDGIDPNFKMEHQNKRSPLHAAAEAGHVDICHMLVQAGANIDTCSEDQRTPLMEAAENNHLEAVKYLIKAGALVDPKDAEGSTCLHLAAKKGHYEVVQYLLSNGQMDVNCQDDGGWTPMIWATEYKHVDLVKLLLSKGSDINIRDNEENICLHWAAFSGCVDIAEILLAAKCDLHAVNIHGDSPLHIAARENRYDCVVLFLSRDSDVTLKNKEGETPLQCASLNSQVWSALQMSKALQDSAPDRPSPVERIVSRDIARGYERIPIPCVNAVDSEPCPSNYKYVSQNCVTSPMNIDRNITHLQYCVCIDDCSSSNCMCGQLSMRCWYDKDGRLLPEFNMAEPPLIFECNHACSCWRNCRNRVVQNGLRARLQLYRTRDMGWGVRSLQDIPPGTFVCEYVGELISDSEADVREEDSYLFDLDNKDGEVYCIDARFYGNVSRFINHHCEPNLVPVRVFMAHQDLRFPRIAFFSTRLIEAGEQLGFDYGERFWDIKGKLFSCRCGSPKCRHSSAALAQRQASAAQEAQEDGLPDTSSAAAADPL

B1: PUF60 (protein, UniProt Q9UHX1 1-559, looked up)
Poly(U)-binding-splicing …: MATATIALQVNGQQGGGSEPAAAAAVVAAGDKWKPPQGTDSIKMENGQSTAAKLGLPPLTPEQQEALQKAKKYAMEQSIKSVLVKQTIAHQQQQLTNLQMAAVTMGFGDPLSPLQSMAAQRQRALAIMCRVYVGSIYYELGEDTIRQAFAPFGPIKSIDMSWDSVTMKHKGFAFVEYEVPEAAQLALEQMNSVMLGGRNIKVGRPSNIGQAQPIIDQLAEEARAFNRIYVASVHQDLSDDDIKSVFEAFGKIKSCTLARDPTTGKHKGYGFIEYEKAQSSQDAVSSMNLFDLGGQYLRVGKAVTPPMPLLTPATPGGLPPAAAVAAAAATAKITAQEAVAGAAVLGTLGTPGLVSPALTLAQPLGTLPQAVMAAQAPGVITGVTPARPPIPVTIPSVGVVNPILASPPTLGLLEPKKEKEEEELFPESERPEMLSEQEHMSISGSSARHMVMQKLLRKQESTVMVLRNMVDPKDIDDDLEGEVTEECGKFGAVNRVIIYQEKQGEEEDAEIIVKIFVEFSIASETHKAIQALNGRWFAGRKVVAEVYDQERFDNSDLSA
- 3xMBT/D355N UNC Heavy (3×MBT domain of L3MBTL1): 1.71 log base 2
- 3xMBT/D355N UNC Light (3×MBT domain of L3MBTL1): 2.61 log base 2
- Relative to UNC0638 UNC Heavy (G9a and GLP): 0.03 log base 2
- Relative to UNC0638 UNC Light (G9a and GLP): 0.07 log base 2
- Relative to UNC0638 Average (G9a and GLP): 0.05 log base 2

B2: STRBP (protein, UniProt Q96SI9 1-672, looked up)
Spermatid perinuclear …: MRSIRSFANDDRHVMVKHSTIYPSPEELEAVQNMVSTVECALKHVSDWLDETNKGTKTEGETEVKKDEAGENYSKDQGGRTLCGVMRIGLVAKGLLIKDDMDLELVLMCKDKPTETLLNTVKDNLPIQIQKLTEEKYQVEQCVNEASIIIRNTKEPTLTLKVILTSPLIRDELEKKDGENVSMKDPPDLLDRQKCLNALASLRHAKWFQARANGLKSCVIVLRILRDLCNRVPTWAPLKGWPLELICEKSIGTCNRPLGAGEALRRVMECLASGILLPGGPGLHDPCERDPTDALSYMTIQQKEDITHSAQHALRLSAFGQIYKVLEMDPLPSSKPFQKYSWSVTDKEGAGSSALKRPFEDGLGDDKDPNKKMKRNLRKILDSKAIDLMNALMRLNQIRPGLQYKLLSQSGPVHAPVFTMSVDVDGTTYEASGPSKKTAKLHVAVKVLQAMGYPTGFDADIECMSSDEKSDNESKNETVSSNSSNNTGNSTTETSSTLEVRTQGPILTASGKNPVMELNEKRRGLKYELISETGGSHDKRFVMEVEVDGQKFRGAGPNKKVAKASAALAALEKLFSGPNAANNKKKKIIPQAKGVVNTAVSAAVQAVRGRGRGTLTRGAFVGATAAPGYIAPGYGTPYGYSTAAPAYGLPKRMVLLPVMKFPTYPVPHYSFF
- 3xMBT/D355N UNC Heavy (3×MBT domain of L3MBTL1): 2.70 log base 2
- 3xMBT/D355N UNC Light (3×MBT domain of L3MBTL1): 3.07 log base 2
- Relative to UNC0638 UNC Heavy (G9a and GLP): 0.21 log base 2
- Relative to UNC0638 UNC Light (G9a and GLP): −0.06 log base 2
- Relative to UNC0638 Average (G9a and GLP): 0.07 log base 2

B3: RAD21 (protein, UniProt O60216 1-631, looked up)
Double-strand-break repair …: MFYAHFVLSKRGPLAKIWLAAHWDKKLTKAHVFECNLESSVESIISPKVKMALRTSGHLLLGVVRIYHRKAKYLLADCNEAFIKIKMAFRPGVVDLPEENREAAYNAITLPEEFHDFDQPLPDLDDIDVAQQFSLNQSRVEEITMREEVGNISILQENDFGDFGMDDREIMREGSAFEDDDMLVSTTTSNLLLESEQSTSNLNEKINHLEYEDQYKDDNFGEGNDGGILDDKLISNNDGGIFDDPPALSEAGVMLPEQPAHDDMDEDDNVSMGGPDSPDSVDPVEPMPTMTDQTTLVPNEEEAFALEPIDITVKETKAKRKRKLIVDSVKELDSKTIRAQLSDYSDIVTTLDLAPPTKKLMMWKETGGVEKLFSLPAQPLWNNRLLKLFTRCLTPLVPEDLRKRRKGGEADNLDEFLKEFENPEVPREDQQQQHQQRDVIDEPIIEEPSRLQESVMEASRTNIDESAMPPPPPQGVKRKAGQIDPEPVMPPQQVEQMEIPPVELPPEEPPNICQLIPELELLPEKEKEKEKEKEDDEEEEDEDASGGDQDQEERRWNKRTQQMLHGLQRALAKTGAESISLLELCRNTNRKQAAAKFYSFLVLKKQQAIELTQEEPYSDIIATPGPRFHII
- 3xMBT/D355N UNC Heavy (3×MBT domain of L3MBTL1): 2.15 log base 2
- 3xMBT/D355N UNC Light (3×MBT domain of L3MBTL1): 1.49 log base 2
- Relative to UNC0638 UNC Heavy (G9a and GLP): 0.07 log base 2
- Relative to UNC0638 UNC Light (G9a and GLP): 0.08 log base 2
- Relative to UNC0638 Average (G9a and GLP): 0.07 log base 2

B4: DNAJC9 (protein, UniProt Q8WXX5 1-260, looked up)
DnaJ homolog subfamily C …: MGLLDLCEEVFGTADLYRVLGVRREASDGEVRRGYHKVSLQVHPDRVGEGDKEDATRRFQILGKVYSVLSDREQRAVYDEQGTVDEDSPVLTQDRDWEAYWRLLFKKISLEDIQAFEKTYKGSEEELADIKQAYLDFKGDMDQIMESVLCVQYTEEPRIRNIIQQAIDAGEVPSYNAFVKESKQKMNARKRRAQEEAKEAEMSRKELGLDEGVDSLKAAIQSRQKDRQKEMDNFLAQMEAKYCKSSKGGGKKSALKKEKK
- 3xMBT/D355N UNC Heavy (3×MBT domain of L3MBTL1): 2.56 log base 2
- 3xMBT/D355N UNC Light (3×MBT domain of L3MBTL1): 1.85 log base 2
- Relative to UNC0638 UNC Heavy (G9a and GLP): 0.09 log base 2
- Relative to UNC0638 UNC Light (G9a and GLP): −0.02 log base 2
- Relative to UNC0638 Average (G9a and GLP): 0.04 log base 2
